The values that follow come from US20190225682A1.

The target of the assay is cyno ST2L (cyno). As to the kind of experiment: affinity table, cyno ST2L; method not stated.

Broadly, the koff is a measure of how fast the partners let go of each other. A high value points to fast dissociation.

B1: STLM107 (antibody, from another filing, V domains shown)
VH: EVQLLESGGGLVQPGGSLRLSCAASGFTFSDYAMFWVRQAPGKGLEWVSAIEGEGGETNYADSVKGRFTISRDNSKNTLYLQMNSLRAEDTAVYYCARDPWSTEGSFFVLDYWGQGTLVTVSS
VL: EIVLTQSPATLSLSPGERATLSCRASQSVDDDLAWYQQKPGQAPRLLIYDASNRATGIPARFSGSGSGTDFTLTISSLEPEDFAVYYCQQYIGAPITFGQGTKVEIK
Turning to B1, the koff is 0.00065 s⁻¹.
